Experiment [1] addresses T1, human prolactin receptor mutant I76V (human, UniProt P16471 25-622).
T1 sequence: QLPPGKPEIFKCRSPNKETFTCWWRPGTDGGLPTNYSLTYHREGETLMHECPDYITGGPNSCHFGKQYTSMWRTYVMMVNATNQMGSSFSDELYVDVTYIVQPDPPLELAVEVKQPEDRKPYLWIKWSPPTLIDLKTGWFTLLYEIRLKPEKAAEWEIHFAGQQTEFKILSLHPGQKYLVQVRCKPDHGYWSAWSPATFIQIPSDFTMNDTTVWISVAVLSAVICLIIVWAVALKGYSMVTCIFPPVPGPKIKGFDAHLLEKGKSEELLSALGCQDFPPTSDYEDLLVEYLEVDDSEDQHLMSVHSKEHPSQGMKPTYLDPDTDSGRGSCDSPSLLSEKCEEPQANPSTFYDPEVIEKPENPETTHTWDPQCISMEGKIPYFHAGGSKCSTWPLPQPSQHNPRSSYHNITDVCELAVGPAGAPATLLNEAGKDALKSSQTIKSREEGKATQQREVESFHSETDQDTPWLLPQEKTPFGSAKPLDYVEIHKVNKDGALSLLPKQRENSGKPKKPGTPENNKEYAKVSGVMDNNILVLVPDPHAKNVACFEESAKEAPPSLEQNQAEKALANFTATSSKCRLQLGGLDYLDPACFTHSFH
As to the kind of experiment: cell-based or functional assay.

Experiment [2] concerns the target T2, wild-type human prolactin receptor (PRLR), isoform 1 (human, UniProt P16471 25-622).
T2 sequence: T1 sequence with V76I
In words: cell-based or functional assay.

Experiment [3] has as its target T1, human prolactin receptor mutant I76V. As to the kind of experiment: radioligand competition ([125I]-hPRL vs unlabeled hPRL) on homogenates of stably transfected HEK 293 cells, Scatchard analysis. The procedure:
(§1) Binding affinities of mutated PRLR for hPRL were determined using cell homogenates of stably transfected HEK 293, following a procedure previously described (KINET et al., J Biol Chem, 274, 26033-26043, 1999). Briefly, recombinant hPRL, produced in bacteria E. coli using the pT7L expression vector, and purified as described previously (PARIS et al., Biotechnol Appl Biochem, 12, 436-449, 1990), was iodinated using the Iodogen method, and its specific activity was in the range of 4-5 μCi/μg. Binding assays were performed overnight at room temperature using 150-300 μg cell homogenate protein in the presence of 20,000-30,000 cpm [¹²⁵I]-hPRL and increasing concentrations of unlabeled hPRL (competitor). Scatchard analysis was performed to determine the binding affinity of mutated PRLR and the number of PRLR per cell in stable clones or populations.
Background: Loss of bound radioactivity is the signal in a displacement assay; it reports binding, not function.

Experiment [4] has as its target T2, wild-type human prolactin receptor …. The experiment is described as above. As to the method:
as §1

Numbering of substitutions follows the chain as printed.

By Kd is commonly meant a measure of binding affinity in units of concentration. Low readings indicate higher affinity, high ones lower affinity.

B1: recombinant human prolactin (hPRL) (ligand, UniProt P01236 29-227, looked up)
chain: LPICPGGAARCQVTLRDLFDRAVVLSHYIHNLSSEMFSEFDKRYTHGRGFITKAINSCHTSSLATPEDKEQAQQMNQKDFLSLIVSILRSWNEPLYHLVTEVRGMQEAPEAILSKAVEIEEQTKRLLEGMELIVSQVHPETKENEIYPVWSGLPSLQMADEESRLSAYYNLLHCLRRDSHKIDNYLKLLKCRIIHNNNC
modifications: tracer form iodinated (125I, Iodogen method); unlabeled hPRL used as competitor
notes: Recombinant hPRL from bacteria; also called WT hPRL; [125I]-hPRL
Turning to B1, the “fold induction of LHRE-luciferase activity by PRL (transient transfection, HEK 293)” value in experiment [1] was 5 fold. Further, the “fold stimulation of LHRE-luciferase activity induced by PRL (stable HEK 293 clones, 1 ug/ml PRL)” value in experiment [2] stood at 8 fold. Besides, the dissociation constant Kd is 0.44 nM in experiment [3] and 0.64 nM in experiment [4].
